For orientation: stoichiometry N means a count of units in the complex or per binding partner.

Values joined by “and” are separate entries in the source; they are usually repeats but may differ in a detail not shown here. Equal values may be shown once.

Assay [1] deals with AimC_(ϕ106), purified (phage ϕ106 (of Bacillus inaquosorum strain KCTC 13429)). Briefly: SEC-MALS. In general terms: SEC sorts molecules by how far they enter the pores of the column.
Assay [2] has as its target AimC_(BMbtp14), purified (phage BMBtp14 (B. cereus group phage)). The experiment in a line: SEC-MALS.

For AimC_(ϕ106), purified (natural protein), the stoichiometry N in assay [1] came out at 2. Take “AimC_(BMbtp14), purified (natural protein)”: the stoichiometry N in assay [2] was 2 and 4.

Values taken from article doi:10.1101/2025.11.23.689978.
